Source: patent US20250235501A1, “Methods and Compositions for Treating or Preventing Neurological Injury or Neurological Disorders” (University of Connecticut, priority 2024, published 2025)

Target: T1, TRPM2 interaction with GluN2b (Rattus norvegicus, UniProt Q00960)
T1 construct: TRPM2 plasmid a gift 17928; 17924; 17925; host or cells: HEK293T
Experiment: Co-IP of TRPM2 with GluN2b in co-transfected HEK293T cells
Format: cell-based, human
Details: 10 μM peptide overnight; IP anti-GluN2b, WB anti-Flag
Procedure: FIGS. 5A and 5B show the effects of TAT-EE3 on interaction of TRPM2 and NMDARs. Co-IP tests of NMDARs with WT or EE3 domain mutants of TRPM2 (Flag-tagged) in co-transfected HEK293T cells. WT TRPM2 groups were treated with 10 μM TAT-SC or TAT-EE3 overnight. Lysates were IP's with anti-GluN2a (FIG. 5A) or anti-GluN2b (FIG. 5B), and probed by WBs with anti-Flag. IgG was used as control for IP. Similar to the mutants TRPM2-ΔEE3 and TRPM2-EQE, TAT-EE3 disrupted TRPM2 interaction with GluN2a and GluN2b.
were ordered from GenScript Biotech, and dissolved in PBS to make a stock concentration at 10 mM. HEK-293T cells or isolated neurons were treated with TAT-SC or TAT-EE3 at a concentration of 10 μM for at least 8 h prior to use. Mice were injected with TAT-SC or TAT-EE3 intraperitoneally (ip) at a dose of 100 nmol/kg. […]
NP-40 lysis buffer ([…], 150 mM NaCl, 1 mM EDTA, 50 mM Tris, pH=8.0) containing proteinase inhibitors (Sigma-Aldrich, 539131-10VL) and phosphatase inhibitors (Thermal Fisher Scientific, 78428) was used to lyse both cultured cells and frozen brain tissue. […] Protein concentration was measured using Pierce™ Rapid Gold BCA Protein Assay Kit (Thermal Fisher Scientific, A53225). […] Then samples were ready for western blotting analysis.

T1 sequence (Q00960 27-1482, other chains not shown): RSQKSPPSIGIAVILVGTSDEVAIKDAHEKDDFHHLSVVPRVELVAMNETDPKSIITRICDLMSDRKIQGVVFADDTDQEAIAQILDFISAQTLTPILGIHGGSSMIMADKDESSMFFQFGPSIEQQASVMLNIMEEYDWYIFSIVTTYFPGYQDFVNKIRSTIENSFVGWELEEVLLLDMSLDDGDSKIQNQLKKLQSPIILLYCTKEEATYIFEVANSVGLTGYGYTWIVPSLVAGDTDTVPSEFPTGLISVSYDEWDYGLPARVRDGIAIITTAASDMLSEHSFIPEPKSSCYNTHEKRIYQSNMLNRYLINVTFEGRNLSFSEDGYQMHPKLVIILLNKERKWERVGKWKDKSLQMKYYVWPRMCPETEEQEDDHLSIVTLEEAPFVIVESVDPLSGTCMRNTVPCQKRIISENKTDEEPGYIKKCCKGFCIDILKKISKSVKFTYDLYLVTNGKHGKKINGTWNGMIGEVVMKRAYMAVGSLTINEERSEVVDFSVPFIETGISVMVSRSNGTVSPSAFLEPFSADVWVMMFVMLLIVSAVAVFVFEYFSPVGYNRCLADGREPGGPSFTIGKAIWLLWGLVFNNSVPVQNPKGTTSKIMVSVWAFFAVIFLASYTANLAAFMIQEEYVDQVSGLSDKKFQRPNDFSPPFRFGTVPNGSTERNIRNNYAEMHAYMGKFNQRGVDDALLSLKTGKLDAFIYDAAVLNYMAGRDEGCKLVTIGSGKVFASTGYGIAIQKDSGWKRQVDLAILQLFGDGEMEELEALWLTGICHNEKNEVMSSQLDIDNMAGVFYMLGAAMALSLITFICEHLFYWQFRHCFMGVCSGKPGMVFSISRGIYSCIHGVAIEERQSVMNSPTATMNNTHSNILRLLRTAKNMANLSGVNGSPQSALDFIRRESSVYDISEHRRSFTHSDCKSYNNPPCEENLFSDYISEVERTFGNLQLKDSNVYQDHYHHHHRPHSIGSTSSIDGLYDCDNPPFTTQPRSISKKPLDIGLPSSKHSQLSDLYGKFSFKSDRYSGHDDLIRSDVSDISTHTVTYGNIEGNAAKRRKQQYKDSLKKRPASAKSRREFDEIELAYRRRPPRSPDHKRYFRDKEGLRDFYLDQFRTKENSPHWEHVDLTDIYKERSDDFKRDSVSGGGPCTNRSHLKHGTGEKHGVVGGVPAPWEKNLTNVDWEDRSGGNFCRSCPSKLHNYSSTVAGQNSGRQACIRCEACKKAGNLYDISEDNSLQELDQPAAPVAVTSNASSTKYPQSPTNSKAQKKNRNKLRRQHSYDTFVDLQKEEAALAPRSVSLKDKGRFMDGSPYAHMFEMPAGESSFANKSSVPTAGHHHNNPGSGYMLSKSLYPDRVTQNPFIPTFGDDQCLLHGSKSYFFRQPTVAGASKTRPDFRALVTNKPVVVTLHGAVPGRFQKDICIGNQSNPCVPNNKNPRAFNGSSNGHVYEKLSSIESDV

TAT-EE3: membrane permeable disrupting peptide, sequence YGRKKRRQRRREEDTDSSEEMLALAEE (SEQ ID NO: 4)
interaction of TRPM2 with GluN2b (co-IP): completely disrupted
